Laboratory results: publication PMC9937922

Target: proliferating cell nuclear antigen (PCNA) (human (endogenous in HAP1)) (UniProt P12004)
Assay: co-IP; Dynabeads Protein A cross-linked (BS3) with α-PCNA (PC10) or α-ENO1 (ab227978); 2 mg HAP1 cytosolic cell extract, 4 °C overnight; washes with 600 mM NaCl; western blot; both directions

Sequence of UniProt P12004 (P12004 whole entry): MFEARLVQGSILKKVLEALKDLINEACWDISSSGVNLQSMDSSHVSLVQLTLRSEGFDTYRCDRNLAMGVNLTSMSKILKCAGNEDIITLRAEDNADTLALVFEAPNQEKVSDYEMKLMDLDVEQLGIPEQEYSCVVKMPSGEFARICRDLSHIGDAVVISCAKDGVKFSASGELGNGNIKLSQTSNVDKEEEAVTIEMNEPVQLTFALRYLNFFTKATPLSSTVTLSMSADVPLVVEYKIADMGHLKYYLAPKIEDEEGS

- percent reduction of the interaction against WT ENO1: 80 to 90%
Substance: ENO1 F423A (from UniProt P06733 1-434) (enzyme)
